For test [1], the target named is T1, human EphA10 extracellular region-SEAP-His protein (human, UniProt Q5JZY3 34-565).
T1 construct: extracellular domain; also called hEphA10-SEAP-His
T1 sequence (looked up): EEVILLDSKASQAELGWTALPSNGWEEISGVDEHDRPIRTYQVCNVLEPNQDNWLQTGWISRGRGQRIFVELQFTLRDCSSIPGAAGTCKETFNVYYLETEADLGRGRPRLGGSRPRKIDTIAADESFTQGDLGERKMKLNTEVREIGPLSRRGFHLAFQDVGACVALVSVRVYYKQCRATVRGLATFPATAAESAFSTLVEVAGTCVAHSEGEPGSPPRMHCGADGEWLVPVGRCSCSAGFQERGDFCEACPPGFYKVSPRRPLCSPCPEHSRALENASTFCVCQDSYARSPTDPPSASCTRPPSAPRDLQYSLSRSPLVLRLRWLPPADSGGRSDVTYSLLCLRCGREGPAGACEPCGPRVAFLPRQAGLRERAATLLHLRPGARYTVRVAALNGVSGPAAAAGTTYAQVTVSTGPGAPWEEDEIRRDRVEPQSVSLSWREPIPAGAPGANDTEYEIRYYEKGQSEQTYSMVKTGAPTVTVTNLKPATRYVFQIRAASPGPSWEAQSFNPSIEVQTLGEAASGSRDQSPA
Briefly: ELISA.

In test [2] the target is T2, human EphB6 extracellular region-SEAP-His protein (human, UniProt O15197 32-594).
T2 construct: extracellular domain; also called hEphB6-SEAP-His
T2 sequence (looked up): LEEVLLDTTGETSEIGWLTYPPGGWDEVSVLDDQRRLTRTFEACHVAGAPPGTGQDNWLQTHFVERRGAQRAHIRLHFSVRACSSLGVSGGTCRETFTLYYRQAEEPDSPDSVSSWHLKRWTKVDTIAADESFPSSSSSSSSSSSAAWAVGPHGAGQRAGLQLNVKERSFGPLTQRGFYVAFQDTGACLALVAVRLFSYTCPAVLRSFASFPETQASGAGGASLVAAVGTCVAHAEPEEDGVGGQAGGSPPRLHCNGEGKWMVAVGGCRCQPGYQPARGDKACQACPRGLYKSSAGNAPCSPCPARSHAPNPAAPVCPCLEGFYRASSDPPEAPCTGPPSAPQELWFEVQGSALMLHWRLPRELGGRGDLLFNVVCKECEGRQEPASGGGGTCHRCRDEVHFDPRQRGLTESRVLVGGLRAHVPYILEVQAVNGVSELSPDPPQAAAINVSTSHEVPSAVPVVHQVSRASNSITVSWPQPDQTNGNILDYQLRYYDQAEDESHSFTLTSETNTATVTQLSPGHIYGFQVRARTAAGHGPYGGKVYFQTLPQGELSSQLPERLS
Briefly: ELISA.

B1: humanized antibody No. 153 (antibody, human IgG2)
heavy: QVQLVQSGSELKKPGASVKVSCKASGYTFTDYSMHWVRQAPGQGLKWMGWINTETGEPTYAQGFTGRFVFSLDTSVSTAYLQISSLKAEDTAVYYCARIPLYYYGSRYWYFDVWGQGTTVTVSSASTKGPSVFPLAPSSRSTSESTAALGCLVKDYFPEPVTVSWNSGALTSGVHTFPAVLQSSGLYSLSSVVTVPSSNFGTQTYTCNVDHKPSNTKVDKTVERKSCVECPPCPAPPAAAPSVFLFPPKPKDTLMISRTPEVTCVVVDVSHEDPEVQFNWYVDGVEVHNAKTKPREEQFNSTFRVVSVLTVVHQDWLNGKEYKCKVSNKGLPAPIEKTISKTKGQPREPQVYTLPPSREEMTKNQVSLTCLVKGFYPSDIAVEWESNGQPENNYKTTPPMLDSDGSFFLYSKLTVDKSRWQQGNVFSCSVMHEALHNHYTQKSLSLSPG
light: DIQMTQSPSSLSASVGDRVTITCRASENIYRNLAWYQQKPGKAPKLLLYAATNLADGVPSRFSGSGSGTDYTLTISSLQSEDFATYYCQHFWGTPWTFGQGTKVEIKRTVAAPSVFIFPPSDEQLKSGTASVVCLLNNFYPREAKVQWKVDNALQSGNSQESVTEQDSKDSTYSLSSTLTLSKADYEKHKVYACEVTHQGLSSPVTKSFNRGEC
notes: human Ig kappa; also called L1-5/HA2
In the case of B1, the results for the “A450 as % of hEphA4-SEAP-His” value in test [1] and in test [2] were 6% and 6.2%, respectively.

B2: humanized antibody No. 158 (antibody, human IgG2)
heavy: QVQLVQSGSELKKPGASVKVSCKASGYTFTDYSMHWVRQAPGQGLKWMGWINTETGEPTYAQGFTGRFVFSLDTSVSTAYLQISSLKAEDTAVYYCARIPLYYYGSRYWYFDVWGQGTTVTVSSASTKGPSVFPLAPSSRSTSESTAALGCLVKDYFPEPVTVSWNSGALTSGVHTFPAVLQSSGLYSLSSVVTVPSSNFGTQTYTCNVDHKPSNTKVDKTVERKSCVECPPCPAPPAAAPSVFLFPPKPKDTLMISRTPEVTCVVVDVSHEDPEVQFNWYVDGVEVHNAKTKPREEQFNSTFRVVSVLTVVHQDWLNGKEYKCKVSNKGLPAPIEKTISKTKGQPREPQVYTLPPSREEMTKNQVSLTCLVKGFYPSDIAVEWESNGQPENNYKTTPPMLDSDGSFFLYSKLTVDKSRWQQGNVFSCSVMHEALHNHYTQKSLSLSPG
light: DIQMTQSPSSLSASVGDRVTITCRASENIYRNLAWYQQKPGKAPQLLLYAATNLADGVPSRFSGSGSGTDYTLTISSLQPEDFATYYCQHFWGTPWTFGQGTKVEIKRTVAAPSVFIFPPSDEQLKSGTASVVCLLNNFYPREAKVQWKVDNALQSGNSQESVTEQDSKDSTYSLSSTLTLSKADYEKHKVYACEVTHQGLSSPVTKSFNRGEC
notes: human Ig kappa; also called L1-6/HA2
On to B2, for which the “A450 as % of hEphA4-SEAP-His” value in test [1] stood at 6.4%; in test [2] it was 6.3%.

B3: humanized antibody No. 155 (antibody, human IgG2)
heavy: QIQLVQSGSELKKPGASVKVSCKASGYTFTDYSMHWVRQAPGQGLKWMGWINTETGEPTYADDFKGRFVFSLDTSVSTAYLQISSLKAEDTAVYYCARIPLYYYGSRYWYFDVWGQGTTVTVSSASTKGPSVFPLAPSSRSTSESTAALGCLVKDYFPEPVTVSWNSGALTSGVHTFPAVLQSSGLYSLSSVVTVPSSNFGTQTYTCNVDHKPSNTKVDKTVERKSCVECPPCPAPPAAAPSVFLFPPKPKDTLMISRTPEVTCVVVDVSHEDPEVQFNWYVDGVEVHNAKTKPREEQFNSTFRVVSVLTVVHQDWLNGKEYKCKVSNKGLPAPIEKTISKTKGQPREPQVYTLPPSREEMTKNQVSLTCLVKGFYPSDIAVEWESNGQPENNYKTTPPMLDSDGSFFLYSKLTVDKSRWQQGNVFSCSVMHEALHNHYTQKSLSLSPG
light: DIQMTQSPSSLSASVGDRVTITCRASENIYRNLAWYQQKPGKAPKLLLYAATNLADGVPSRFSGSGSGTDYTLTISSLQSEDFATYYCQHFWGTPWTFGQGTKVEIKRTVAAPSVFIFPPSDEQLKSGTASVVCLLNNFYPREAKVQWKVDNALQSGNSQESVTEQDSKDSTYSLSSTLTLSKADYEKHKVYACEVTHQGLSSPVTKSFNRGEC
notes: human Ig kappa; also called L1-5/HK4
B3: the “A450 as % of hEphA4-SEAP-His” value in test [1] worked out at 5.4%; in test [2], 5.6%.

B4: humanized antibody No. 157 (antibody, human IgG2)
heavy: QVQLVQSGSELKKPGASVKVSCKASGYTFTDYSMHWVRQAPGQGLEWMGWINTETGEPTYAQGFTGRFVFSLDTSVSTAYLQISSLKAEDTAVYYCARIPLYYYGSRYWYFDVWGQGTTVTVSSASTKGPSVFPLAPSSRSTSESTAALGCLVKDYFPEPVTVSWNSGALTSGVHTFPAVLQSSGLYSLSSVVTVPSSNFGTQTYTCNVDHKPSNTKVDKTVERKSCVECPPCPAPPAAAPSVFLFPPKPKDTLMISRTPEVTCVVVDVSHEDPEVQFNWYVDGVEVHNAKTKPREEQFNSTFRVVSVLTVVHQDWLNGKEYKCKVSNKGLPAPIEKTISKTKGQPREPQVYTLPPSREEMTKNQVSLTCLVKGFYPSDIAVEWESNGQPENNYKTTPPMLDSDGSFFLYSKLTVDKSRWQQGNVFSCSVMHEALHNHYTQKSLSLSPG
light: DIQMTQSPSSLSASVGDRVTITCRASENIYRNLAWYQQKPGKAPQLLLYAATNLADGVPSRFSGSGSGTDYTLTISSLQPEDFATYYCQHFWGTPWTFGQGTKVEIKRTVAAPSVFIFPPSDEQLKSGTASVVCLLNNFYPREAKVQWKVDNALQSGNSQESVTEQDSKDSTYSLSSTLTLSKADYEKHKVYACEVTHQGLSSPVTKSFNRGEC
notes: human Ig kappa; also called L1-6/HA1
In the case of B4, the figures for the “A450 as % of hEphA4-SEAP-His” value in test [1] and in test [2] were 6.1% and 6.3%, respectively.

B5: humanized antibody No. 156 (antibody, human IgG2)
heavy: QIQLVQSGSELKKPGASVKVSCKASGYTFTDYSMHWVRQAPGQGLKWMGWINTETGEPTYAQGFTGRFVFSLDTSVSTAYLQISSLKAEDTAVYYCARIPLYYYGSRYWYFDVWGQGTTVTVSSASTKGPSVFPLAPSSRSTSESTAALGCLVKDYFPEPVTVSWNSGALTSGVHTFPAVLQSSGLYSLSSVVTVPSSNFGTQTYTCNVDHKPSNTKVDKTVERKSCVECPPCPAPPAAAPSVFLFPPKPKDTLMISRTPEVTCVVVDVSHEDPEVQFNWYVDGVEVHNAKTKPREEQFNSTFRVVSVLTVVHQDWLNGKEYKCKVSNKGLPAPIEKTISKTKGQPREPQVYTLPPSREEMTKNQVSLTCLVKGFYPSDIAVEWESNGQPENNYKTTPPMLDSDGSFFLYSKLTVDKSRWQQGNVFSCSVMHEALHNHYTQKSLSLSPG
light: DIQMTQSPSSLSASVGDRVTITCRASENIYRNLAWYQQKPGKAPQLLLYAATNLADGVPSRFSGSGSGTDYTLTISSLQPEDFATYYCQHFWGTPWTFGQGTKVEIKRTVAAPSVFIFPPSDEQLKSGTASVVCLLNNFYPREAKVQWKVDNALQSGNSQESVTEQDSKDSTYSLSSTLTLSKADYEKHKVYACEVTHQGLSSPVTKSFNRGEC
notes: human Ig kappa; also called L1-6/HA4
With B5, the entries for the “A450 as % of hEphA4-SEAP-His” value in test [1] and in test [2] were 5.3% and 5.7%, respectively.

B6: humanized antibody No. 159 (antibody, human IgG2)
heavy: QVQLVQSGSELKKPGASVKVSCKASGYTFTDYSMHWVRQAPGQGLKWMGWINTETGEPTYADDFKGRFVFSLDTSVSTAYLQISSLKAEDTAVYYCARIPLYYYGSRYWYFDVWGQGTTVTVSSASTKGPSVFPLAPSSRSTSESTAALGCLVKDYFPEPVTVSWNSGALTSGVHTFPAVLQSSGLYSLSSVVTVPSSNFGTQTYTCNVDHKPSNTKVDKTVERKSCVECPPCPAPPAAAPSVFLFPPKPKDTLMISRTPEVTCVVVDVSHEDPEVQFNWYVDGVEVHNAKTKPREEQFNSTFRVVSVLTVVHQDWLNGKEYKCKVSNKGLPAPIEKTISKTKGQPREPQVYTLPPSREEMTKNQVSLTCLVKGFYPSDIAVEWESNGQPENNYKTTPPMLDSDGSFFLYSKLTVDKSRWQQGNVFSCSVMHEALHNHYTQKSLSLSPG
light: DIQMTQSPSSLSASVGDRVTITCRASENIYRNLAWYQQKPGKAPQLLLYAATNLADGVPSRFSGSGSGTDYTLTISSLQPEDFATYYCQHFWGTPWTFGQGTKVEIKRTVAAPSVFIFPPSDEQLKSGTASVVCLLNNFYPREAKVQWKVDNALQSGNSQESVTEQDSKDSTYSLSSTLTLSKADYEKHKVYACEVTHQGLSSPVTKSFNRGEC
notes: human Ig kappa; also called L1-6/HK2
As for B6, the “A450 as % of hEphA4-SEAP-His” value in test [1] worked out at 5.3%; in test [2] it was 5.5%.

B7: humanized antibody No. 154 (antibody, human IgG2)
heavy: QVQLVQSGSELKKPGASVKVSCKASGYTFTDYSMHWVRQAPGQGLEWMGWINTETGEPTYADDFKGRFVFSLDTSVSTAYLQISSLKAEDTAVYYCARIPLYYYGSRYWYFDVWGQGTTVTVSSASTKGPSVFPLAPSSRSTSESTAALGCLVKDYFPEPVTVSWNSGALTSGVHTFPAVLQSSGLYSLSSVVTVPSSNFGTQTYTCNVDHKPSNTKVDKTVERKSCVECPPCPAPPAAAPSVFLFPPKPKDTLMISRTPEVTCVVVDVSHEDPEVQFNWYVDGVEVHNAKTKPREEQFNSTFRVVSVLTVVHQDWLNGKEYKCKVSNKGLPAPIEKTISKTKGQPREPQVYTLPPSREEMTKNQVSLTCLVKGFYPSDIAVEWESNGQPENNYKTTPPMLDSDGSFFLYSKLTVDKSRWQQGNVFSCSVMHEALHNHYTQKSLSLSPG
light: DIQMTQSPSSLSASVGDRVTITCRASENIYRNLAWYQQKPGKAPKLLLYAATNLADGVPSRFSGSGSGTDYTLTISSLQSEDFATYYCQHFWGTPWTFGQGTKVEIKRTVAAPSVFIFPPSDEQLKSGTASVVCLLNNFYPREAKVQWKVDNALQSGNSQESVTEQDSKDSTYSLSSTLTLSKADYEKHKVYACEVTHQGLSSPVTKSFNRGEC
notes: human Ig kappa; also called L1-5/HK1
For the molecule B7, the results for the “A450 as % of hEphA4-SEAP-His” value in test [1] and in test [2] were 5.9% and 6.4%, respectively.

The values above are taken from US20190077860A1 (EISAI R AND D MANAGEMENT, published 2019).
